For this experiment, the target named is T1, human Thyroid Stimulating Hormone Receptor (TSHR), expressed on transfected or transduced cells (human, UniProt P16473 21-764).
T1 construct: also called Hu-TSHR; human TSHR
The experiment in a line: flow cytometry on HEK-293T cells transfected with TSHR expression vectors. (In general: In flow cytometry, cells or beads pass a laser one at a time.)

Description: Flow Cytometry. Flow cytometry was performed to assess specific binding of TSHR and HER2 bispecific antibodies or to quantify their membrane expression. […] For flow analysis cells were harvested using 0.02% EDTA in phosphate-buffered saline (PBS). […] After washing, cells were captured using a BD LSRFortessa (BD Biosciences). Cells stained with DAPI (1 μg/mL) were excluded. Cytometric analysis was performed using FlowJo (V10.6; FlowJo) to obtain median fluorescence intensity (MFI) or to quantify molecules per cell using QuantiBRITE PE reference beads (BD Biosciences).

B1: M22/CD3 T-BsAb (anti-TSHR x anti-CD3 bispecific antibody, IgG-[L]-scFv 2+2 format) (bispecific antibody)
light: LTVLTQPPSVSGAPRQRVTISCSGNSSNIGNNAVNWYQQLPGKAPKLLIYYDDQLPSGVSDRFSGSRSGTSASLAIRGLQSEDEADYYCTSWDDSLDSQLFGGGTRLTVLGQPKAAPSVTLFPPSSEELQANKATLVCLISDFYPGAVTVAWKADSSPVKAGVETTTPSKQSNNKYAASSYLSLTPEQWKSHRSYSCQVTHEGSTVEKTVAPTECTSGGGGSGGGGSGGGGSQVQLVQSGGGVVQPGRSLRLSCKASGYTFTRYTMHWVRQAPGKCLEWIGYINPSRGYTNYNQKFKDRFTISRDNSKNTAFLQMDSLRPEDTGVYFCARYYDDHYSLDYWGQGTPVTVSSGGGGSGGGGSGGGGSGGGGSGGGGSGGGGSDIQMTQSPSSLSASVGDRVTITCSASSSVSYMNWYQQTPGKAPKRWIYDTSKLASGVPSRFSGSGSGTDYTFTISSLQPEDIATYYCQQWSSNPFTFGCGTKLQITR
heavy: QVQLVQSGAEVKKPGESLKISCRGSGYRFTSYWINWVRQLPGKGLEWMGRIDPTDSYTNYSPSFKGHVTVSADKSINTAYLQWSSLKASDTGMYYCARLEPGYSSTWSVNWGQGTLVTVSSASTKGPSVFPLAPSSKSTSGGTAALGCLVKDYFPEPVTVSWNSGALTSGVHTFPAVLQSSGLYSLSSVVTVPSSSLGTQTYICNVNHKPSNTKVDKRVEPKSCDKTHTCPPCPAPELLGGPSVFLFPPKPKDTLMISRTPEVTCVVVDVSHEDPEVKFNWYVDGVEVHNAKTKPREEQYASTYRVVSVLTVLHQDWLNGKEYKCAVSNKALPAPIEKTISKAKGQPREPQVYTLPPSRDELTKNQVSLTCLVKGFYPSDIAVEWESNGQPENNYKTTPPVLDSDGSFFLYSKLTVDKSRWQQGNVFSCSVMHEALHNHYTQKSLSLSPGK
notes: Expressed in Expi-CHO cells and purified on protein A; also called M22/CD3 BsAb; M22-TSHR/CD3
Turning to B1, the binding result was “binds”.

B2: K1-70/CD3 T-BsAb (anti-TSHR x anti-CD3 bispecific antibody, IgG-[L]-scFv 2+2 format) (bispecific antibody)
light: QSVLTQPPSVSAAPGQKVTISCSGSSSDIGSNYVSWYQQFPGTAPKLLIYDNNKRPSAIPDRFSGSKSGTSATLGITGLQTGDEADYYCGTWDSRLGIAVFGGGTQLTVLGQPKAAPSVTLFPPSSEELQANKATLVCLISDFYPGAVTVAWKADSSPVKAGVETTTPSKQSNNKYAASSYLSLTPEQWKSHRSYSCQVTHEGSTVEKTVAPTECTSGGGGSGGGGSGGGGSQVQLVQSGGGVVQPGRSLRLSCKASGYTFTRYTMHWVRQAPGKCLEWIGYINPSRGYTNYNQKFKDRFTISRDNSKNTAFLQMDSLRPEDTGVYFCARYYDDHYSLDYWGQGTPVTVSSGGGGSGGGGSGGGGSGGGGSGGGGSGGGGSDIQMTQSPSSLSASVGDRVTITCSASSSVSYMNWYQQTPGKAPKRWIYDTSKLASGVPSRFSGSGSGTDYTFTISSLQPEDIATYYCQQWSSNPFTFGCGTKLQITR
heavy: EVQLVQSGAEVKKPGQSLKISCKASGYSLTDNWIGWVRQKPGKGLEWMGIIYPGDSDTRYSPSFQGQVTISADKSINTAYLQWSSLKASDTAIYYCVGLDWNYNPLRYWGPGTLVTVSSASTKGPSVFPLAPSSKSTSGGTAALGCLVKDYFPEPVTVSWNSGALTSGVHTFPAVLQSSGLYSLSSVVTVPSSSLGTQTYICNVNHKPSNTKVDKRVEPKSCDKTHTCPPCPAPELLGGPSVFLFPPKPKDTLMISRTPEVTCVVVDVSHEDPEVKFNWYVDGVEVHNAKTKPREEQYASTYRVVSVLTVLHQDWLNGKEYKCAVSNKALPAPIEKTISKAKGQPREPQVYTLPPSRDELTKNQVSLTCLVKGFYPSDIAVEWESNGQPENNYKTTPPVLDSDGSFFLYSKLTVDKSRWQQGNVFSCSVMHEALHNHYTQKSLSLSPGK
notes: also called K1-70/CD3 BsAb; K1-70-TSHR/CD3
B2: the binding result is given as “binds”.

The values are drawn from patent US20240415888A1 (Memorial Sloan Kettering, published 2024).
